Residue numbers refer to the chain shown, from its start.
T1: Claudin 6 (human) (human, UniProt P56747 1-220)
T1 construct: Expressed on transfected HEK-293T cells or naturally on PA-1 cells for flow cytometry; For the Octet KD values it was the intact protein embedded in virus-like particles (lipoparticles); also called hsCLDN6; CLDN6
T1 chain: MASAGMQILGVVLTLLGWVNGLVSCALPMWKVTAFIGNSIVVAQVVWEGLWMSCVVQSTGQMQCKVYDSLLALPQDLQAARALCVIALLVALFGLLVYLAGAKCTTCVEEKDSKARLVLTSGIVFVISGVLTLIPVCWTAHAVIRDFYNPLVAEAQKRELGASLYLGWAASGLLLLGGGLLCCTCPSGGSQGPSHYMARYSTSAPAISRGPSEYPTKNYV

T2: Claudin 9 (UniProt O95484 1-217)
T2 construct: Octet KD values: intact claudin protein embedded in virus-like particles (lipoparticles); also called CLDN9
T2 sequence (looked up): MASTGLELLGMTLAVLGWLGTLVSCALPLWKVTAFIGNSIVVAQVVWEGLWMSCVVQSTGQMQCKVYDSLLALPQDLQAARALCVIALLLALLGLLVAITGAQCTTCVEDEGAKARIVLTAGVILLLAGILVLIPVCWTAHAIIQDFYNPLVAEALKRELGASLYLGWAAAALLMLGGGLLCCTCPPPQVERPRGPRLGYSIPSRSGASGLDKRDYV

T3: Claudin 4 (UniProt O14493 1-209)
T3 construct: also called CLDN4
T3 sequence (looked up): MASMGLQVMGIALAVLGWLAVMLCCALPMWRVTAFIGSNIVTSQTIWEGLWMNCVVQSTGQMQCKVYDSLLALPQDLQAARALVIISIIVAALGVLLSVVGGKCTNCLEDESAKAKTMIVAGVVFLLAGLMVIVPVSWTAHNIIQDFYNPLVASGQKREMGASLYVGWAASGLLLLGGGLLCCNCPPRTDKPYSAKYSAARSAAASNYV

T4: Claudin 3 (UniProt O15551 1-220)
T4 construct: also called CLDN3
T4 sequence (looked up): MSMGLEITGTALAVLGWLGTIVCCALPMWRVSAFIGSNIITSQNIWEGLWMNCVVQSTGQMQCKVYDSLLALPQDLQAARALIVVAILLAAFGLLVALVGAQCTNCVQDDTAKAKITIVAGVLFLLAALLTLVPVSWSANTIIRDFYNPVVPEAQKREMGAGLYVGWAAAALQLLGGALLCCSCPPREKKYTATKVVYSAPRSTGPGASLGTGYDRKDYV

B1: IM-35-N1F09-1HA (antibody, V domains shown)
VH: EVQLLESGGGLVQPGGSLRLSCAASGFTFSSYGMSWVRQAPGKGLEWVAGIGSSGIYTHYADSVKGRFTISRDNSKNTLYLQMNSLRAEDTAVYYCAKSPGDSDWCGWAGYGIYSCRVAGFIDAWGQGTLVTVSS
VL: SYELTQPPSVSVSPGQTARITCSGGYNGHYGWYQQKPGQAPVLVIYGTNKRPSGIPERFSGSSSGTTVTLTISGVQAEDEADYYCGGYDSSAGIFGGGTKLTVL
B2: IM-271-1HBF (antibody, V domains shown)
VH: EVQLLESGGGLVQPGGSLRLSCAASGFTFSSYAMNWVRQAPGKGLEWVAGISSSGRYTGYADSVKGRFTISRDNSKNTLYLQMNSLRAEDTAVYYCAKSVGSGVSWSGYVATSIDAWGQGTLVTVSS
VL: SYELTQPPSVSVSPGQTARITCSAGSGLYGWYQQKPGQAPVLVIYGTNKRPSGIPERFSGSSSGTTVTLTISGVQAEDEADYYCGSADSSTNAGIFGGGTKLTVL
notes: also called CH-HAMF5-1HBF
B3: IM180 w/ F10h cLC (antibody, V domains shown)
VH: B2 VH with T28D, S52G, S54T, R56S, Y57S, S102N, V104N, V110I
VL: B1 VL with G47S, T48N, K50Q
notes: IM180 heavy chain paired with the common light chain F10h
B4: IM180 (antibody, V domains shown)
VH: B2 VH with T28D, S52G, S54T, R56S, Y57S, S102N, V104N, V110I
VL: SYELTQPPSVSVSPGQTARITCSGGSSGYGWYQQKPGQAPVLVIYSNDKRPSGIPERFSGSSSGTTVTLTISGVQAEDEADYYCGSTDNSYVGIFGGGTKLTVL
notes: Produced with its natural light chain
B5: IM-271-1HHP (antibody, V domains shown)
VH: B2 VH with I114L, A116V
VL: B2 VL with A24G, L28S, N48Y
notes: also called CH-HAMF5-1HHP
B6: IM-271-1HGT (antibody, V domains shown)
VH: B2 VH with I114L, A116V
VL: B2 VL with A87N, S89A
notes: also called CH-HAMF5-1HGT
B7: IM271 w/ F10h cLC (antibody, V domains shown)
VH: B2 VH with N35S, S102N, V104N, V110I
VL: B1 VL with G47S, T48N, K50Q
notes: IM271 heavy chain paired with the common light chain F10h
B8: IM271 (antibody, V domains shown)
VH: B2 VH with N35S, S102N, V104N, V110I
VL: B2 VL with A24G, L28S
B9: IM-271-1HEP (antibody, V domains shown)
VH: B2 VH with I114L
VL: B2 VL
notes: T0003 prints the label CH-HAMF5-MEP; Tied by the suffix only; also called CH-HAMF5-1HEP; CH-HAMF5-MEP
B10: IM-271-1HHR (antibody, V domains shown)
VH: B2 VH with V100M, I114L, A116V
VL: B2 VL with A24G, L28S, N48Y
notes: also called CH-HAMF5-1HHR
B11: IM-271-1HFB (antibody, V domains shown)
VH: B2 VH with V100M
VL: B2 VL with A24G, L28S, N48Y
notes: also called CH-HAMF5-1HFB
B12: IM-271-1HBG (antibody, V domains shown)
VH: B2 VH with V100M
VL: B2 VL
notes: also called CH-HAMF5-1HBG
B13: IM-271-1HFJ (antibody, V domains shown)
VH: B2 VH with V100M, A116V
VL: B2 VL
notes: also called CH-HAMF5-1HFJ
B14: IM-271-1HAQ (antibody, V domains shown)
VH: B2 VH with N35S, S102N, V104N
VL: B2 VL with A24G, L28S
notes: also called CH-HAMF5-1HAQ
B15: IM136 (antibody, V domains shown)
VH: AVTLDESGGGLQTPGGVLSLVCKASGFSFSSYDMGWVRQAPGKGLEWVASIYSSASSTYYAPAVKGRATITRDNGQSTVRLQLNNLRAEDTGTYYCAKAAGRTYRGWATYIADSIDAWGHGTEVIVSS
VL: ALTQPSSVSANPGESVEITCSGDSSWYGYGWYQQKSPGSAPVTLIYESGKRPSDIPSRFSGSTSGSTATLTITGVQADDEAVYYCGSADSNSIGIFGAGTTLTVL
notes: Detected with anti-human IgG Fc secondary
B16: IM-35-N2H07-1HA (antibody, V domains shown)
VH: EVQLLESGGGLVQPGGSLRLSCAASGFTFSGYAMSWVRQAPGKGLEWVAGIYSSGSYTFYADSVKGRFTISRDNSKNTLYLQMNSLRAEDTAVYYCAKGTGYCDWSGWCYSGAANIDAWGQGTLVTVSS
VL: SYELTQPPSVSVSPGQTARITCSGGSGSYGYYGWYQQKPGQAPVLVIYGTNKRPSGIPERFSGSSSGTTVTLTISGVQAEDEADYYCGSEDSSSGAGIFGGGTKLTVL
B17: IM172 (antibody, V domains shown)
VH: AVTLDESGGGLQTPGGALSLVCKGSGFSISSYTMQWVRQAPGKGLEWVAGIYSGSRTYYGAAVQGRATISRDNGQSTVRLQLNNLRAEDTGTYYCAKSSYCTAWTGCDVYAGGSIDAWGHGTEVIVSS
VL: ALTQPSSVSATPGGTVEITCSGDSSDDGSYYYGWYQQKSPGSAPVTVIYSNDKRPSSIPSRFSGSASGSTATLTITGVQADDEAVYFCGSYDSSTGIFGAGTTLTVL
notes: as for B15

Experiments:
Claudin 6 (human) [1] = target: T1, Claudin 6 (human); assay: binding assay of the 13th table, method not described
Claudin 6 (human) [2] = target: T1, Claudin 6 (human); assay: flow cytometry, 66 nM MAb on HEK-293T cells expressing claudin6
Procedure: Expression and Binding of claudin6 MAbs. Claudin 6 MAbs produced using their natural light chain, or produced using a different light chain. Yield represents the preparation of the purified MAb and ug of protein resulting from the preparation. Binding represents 66 nM of the indicated MAb binding to HEK-293T cells expressing the target claudin6. The Controls represents the same MAbs staining HEK-293T cells not transfectedwith claudin6. Staining was detected by flow cytometry (geometric mean fluorescence). N/A, not available.

Claudin 6 (human) [3] = target: T1, Claudin 6 (human); assay: flow cytometry, HEK-293T cells transfected with plasmids for the indicated proteins; pUC = empty vector control
Claudin 9 = target: T2, Claudin 9; assay: biosensor (Forte Octet), intact claudin in virus-like particles (lipoparticles)
Procedure: Affinity of various antibodies against CLDN6 as compared to CLDN9, CLDN3, and CLDN4 was measured using a biosensor. Biosensor affinity measurement of the various antibodies against the proteins was determined using a Forte Octet, which was used for biosensor measurements, using intact claudin proteins embedded in virus-like particles (lipoparticles). The KD for different antibodies is shown below.

Claudin 4 = target: T3, Claudin 4; assay: flow cytometry, HEK-293T cells transiently transfected with the indicated claudin; pUC19 = empty vector control
Procedure: (§1) FIG. 2 illustrates the results of a binding assay showing that Claudin 6 MAbs bind to human Claudin 6 preferentially over other Claudin proteins. Human embryonic kidney 293T (HEK-293T) cells were transiently transfected with DNA for the indicated Claudin protein or empty vector along with GFP (pUC) for 22 hours.

Claudin 3 = target: T4, Claudin 3; assay: as above
Procedure: as §1

Binder | EC50 (Claudin 6 (human) [1]) [nM] | other results
B1 | < 4 | 
B2 | < 4 | 
B3 |  | Binding (geometric mean fluorescence) (Claudin 6 (human) [2]): 10100 geometric mean fluorescence
B4 |  | Binding (geometric mean fluorescence) (Claudin 6 (human) [2]): 46900 geometric mean fluorescence
B5 | < 4 | 
B6 | < 4 | 
B7 |  | Binding (geometric mean fluorescence) (Claudin 6 (human) [2]): 160000 geometric mean fluorescence
B8 | < 4 | EC50 (read off the curve) (Claudin 6 (human) [3]): ~0.4 µg/mL; Binding (geometric mean fluorescence) (Claudin 6 (human) [2]): 63000 geometric mean fluorescence
B9 | < 4 | 
B10 | < 4 | 
B11 | < 4 | 
B12 | < 4 | 
B13 | < 4 | 
B14 | < 4 | 
B15 |  | Kd (Claudin 9): 386 nM; binding result (Claudin 4): no binding (tested: log [mAb] about -7.2 M); binding result (Claudin 3): no binding (tested: log [mAb] about -7.2 M)
B16 | < 4 | 
B17 |  | Kd (Claudin 9): 81 nM

Source: patent US20220127355A1 (INTEGRAL MOLECULAR, published 2022)
